Data reported in IntAct's records for PubMed 24997597.

B1: Centrosomal protein of 152 kDa (Homo sapiens), O94986-3 (parent)
chain: MSLDFGSVALPVQNEDEEYDEEDYEREKELQQLLTDLPHDMLDDDLSSPELQYSDCSEDGTDGQPHHPEQLEMSWNEQMLPKSQSVNGYNEIQSLYAGEKCGNVWEENRSKTEDRHPVYHPEEGGDEGGSGYSPPSKCEQTDLYHLPENFRPYTNGQKQEFNNQATNVIKFSDPQWNHFQGPSCQGLEPYNKVTYKPYQSSAQNNGSPAQEITGSDTFEGLQQQFLGANENSAENMQIIQLQVLNKAKERQLENLIEKLNESERQIRYLNHQLVIIKDEKDGLTLSLRESQKLFQNGKEREIQLEAQIKALETQIQALKVNEEQMIKKSRTTEMALESLKQQLVDLHHSESLQRAREQHESIVMGLTKKYEEQVLSLQKNLDATVTALKEQEDICSRLKDHVKQLERNQEAIKLEKTEIINKLTRSLEESQKQCAHLLQSGSVQEVAQLQFQLQQAQKAHAMSANMNKALQEELTELKDEISLYESAAKLGIHPSDSEGELNIELTESYVDLGIKKVNWKKSKVTSIVQEEDPNEELSKDEFILKLKAEVQRLLGSNSMKRHLVSQLQNDLKDCHKKIEDLHQVKKDEKSIEVETKTDTSEKPKNQLWPESSTSDVVRDDILLLKNEIQVLQQQNQELKETEGKLRNTNQDLCNQMRQMVQDFDHDKQEAVDRCERTYQQHHEAMKTQIRESLLAKHALEKQQLFEAYERTHLQLRSELDKLNKEVTAVQECYLEVCREKDNLELTLRKTTEKEQQTQEKIKEKLIQQLEKEWQSKLDQTIKAMKKKTLDCGSQTDQVTTSDVISKKEMAIMIEEQKCTIQQNLEQEKDIAIKGAMKKLEIELELKHCENITKQVEIAVQNAHQRWLGELPELAEYQALVKAEQKKWEEQHEVSVNKRISFAVSEAKEKWKSELENMRKNILPGKELEEKIHSLQKELELKNEEVPVVIRAELAKARSEWNKEKQEEIHRIQEQNEQDYRQFLDDHRNKINEVLAAAKEDFMKQKTELLLQKETELQTCLDQSRREWTMQEAKRIQLEIYQYEEDILTVLGVLLSDTQKEHISDSEDKQLLEIMSTCSSKWMSVQYFEKLKGCIQKAFQDTLPLLVENADPEWKKRNMAELSKDSASQGTGQGDPGPAAGHHAQPLALQATEAEAEENNKVVEELIEENNDMKNKLEELQTLCKTPPRSLSAGAIENACLPCSGGALEELRGQYIKAVKKIKCDMLRYIQESKERAAEMVKAEVLRERQETARKMRKYYLICLQQILQDDGKEGAEKKIMNAASKLATMAKLLETPISSKSQSKTTQSALPLTSEMLIAVKKSKRNDVNQKIPCCIESKSNSVNTITRTLCEQAPKRRAACNLQRLLENSEHQSIKHVGSKETHLEFQFGDGSCKHLNSLPRNVSPEFVPCEGEGGFGLHKKKDLLSDNGSESLPHSAAYPFLGTLGNKPSPRCTPGPSESGCMHITFRDSNERLGLKVYKCNPLMESENAASEKSQGLDVQEPPVKDGGDLSDCLGWPSSSATLSFDSREASFVHGRPQGTLEIPSESVKSKQFSPSGYLSDTEESNMICQTMKCQRYQTPYLSEETTYLEPGKISVNCGHPSRHKADRLKSDFKKLSSTLPSSVCQQPSRKLIVPLSSQQDSGFDSPFVNLD
partner: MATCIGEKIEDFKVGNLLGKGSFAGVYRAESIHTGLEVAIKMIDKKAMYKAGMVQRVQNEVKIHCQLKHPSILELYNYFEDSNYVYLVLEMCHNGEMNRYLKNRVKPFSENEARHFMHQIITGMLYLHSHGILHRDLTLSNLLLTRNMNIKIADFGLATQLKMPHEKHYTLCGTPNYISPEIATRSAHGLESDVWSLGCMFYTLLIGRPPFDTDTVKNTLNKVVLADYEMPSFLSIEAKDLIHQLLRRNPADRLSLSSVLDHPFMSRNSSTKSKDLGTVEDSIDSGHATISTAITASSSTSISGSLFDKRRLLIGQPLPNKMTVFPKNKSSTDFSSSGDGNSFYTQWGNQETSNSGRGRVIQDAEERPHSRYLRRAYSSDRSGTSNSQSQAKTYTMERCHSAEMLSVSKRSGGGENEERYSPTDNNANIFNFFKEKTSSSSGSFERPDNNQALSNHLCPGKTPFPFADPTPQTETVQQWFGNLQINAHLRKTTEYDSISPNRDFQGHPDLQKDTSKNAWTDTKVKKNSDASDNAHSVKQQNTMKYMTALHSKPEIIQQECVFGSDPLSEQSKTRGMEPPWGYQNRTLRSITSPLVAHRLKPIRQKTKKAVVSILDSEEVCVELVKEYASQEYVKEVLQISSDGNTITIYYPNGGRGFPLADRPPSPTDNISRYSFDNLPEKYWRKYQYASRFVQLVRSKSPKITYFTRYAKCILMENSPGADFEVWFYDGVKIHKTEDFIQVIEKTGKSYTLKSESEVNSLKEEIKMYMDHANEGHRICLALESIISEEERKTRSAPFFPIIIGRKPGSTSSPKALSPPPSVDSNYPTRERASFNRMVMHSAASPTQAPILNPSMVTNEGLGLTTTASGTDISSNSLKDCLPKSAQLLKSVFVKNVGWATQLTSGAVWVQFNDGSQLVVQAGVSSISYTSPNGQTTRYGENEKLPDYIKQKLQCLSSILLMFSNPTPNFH
B2: Serine/threonine-protein kinase PLK4 (Homo sapiens), O00444 (parent)
chain: B1 partner

Variants of: B1
Conditions: with plk4_human PLK4, O00444

Variant | effect of a mutation on the interaction
V8A | decreasing interaction strength
E21K | decreasing interaction strength

Variants of: B2
Conditions: with CEP152, O94986-3

Variant | effect of a mutation on the interaction
K685A | disrupting interaction strength
K711A | decreasing interaction strength
